Measurements published in publication PMC6602471.

target: T1, ETS1 (Homo sapiens) (UniProt P14921); test: PBM; details: Custom protein-binding microarray; buffer, salt, pH and temperature not given in the material
T1 sequence (P14921 whole entry, looked up): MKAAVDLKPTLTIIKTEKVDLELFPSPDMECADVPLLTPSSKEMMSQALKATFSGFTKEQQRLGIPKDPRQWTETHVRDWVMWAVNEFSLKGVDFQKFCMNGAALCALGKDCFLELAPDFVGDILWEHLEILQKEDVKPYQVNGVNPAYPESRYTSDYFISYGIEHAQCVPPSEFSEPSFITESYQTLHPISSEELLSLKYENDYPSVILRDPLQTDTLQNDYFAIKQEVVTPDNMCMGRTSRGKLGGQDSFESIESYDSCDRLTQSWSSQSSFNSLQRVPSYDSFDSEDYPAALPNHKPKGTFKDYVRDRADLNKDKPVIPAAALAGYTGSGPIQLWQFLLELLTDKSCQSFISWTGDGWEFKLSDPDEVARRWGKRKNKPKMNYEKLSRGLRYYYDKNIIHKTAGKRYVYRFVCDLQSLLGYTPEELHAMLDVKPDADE

Point of comparison: “CGGAAGTGTCGTAAACGTCGGATTTCCGGTTCTTCTGTCTTGATTCGCTTGACGCTGCTG (double strand) [seq01_p24 A>T]”, binding signal 12.5 log signal. Against it:
- CGGAAGTGTCGTAAACGTCGGATATCCTGTTCTTCTGTCTTGATTCGCTTGACGCTGCTG (double strand) [seq01_p28 G>T] — lower, 10.1 log signal
- CGGAAGTGTCGTAAACGTCGGAAATCCGGTTCTTCTGTCTTGATTCGCTTGACGCTGCTG (double strand) [seq01_p23 T>A] — lower, 9.71 log signal
- CGGAAGTGTCGTAAACGTCGGATATCCGATTCTTCTGTCTTGATTCGCTTGACGCTGCTG (double strand) [seq01_p29 G>A] — lower, 8.64 log signal
- CGGAAGTGTCGTAAACGTCGGATAACCGGTTCTTCTGTCTTGATTCGCTTGACGCTGCTG (double strand) [seq01_p25 T>A] — lower, 8.34 log signal
- CGGAAGTGTCGTAAACGTCGGATATCCCGTTCTTCTGTCTTGATTCGCTTGACGCTGCTG (double strand) [seq01_p28 G>C] — lower, 8.7 log signal
- GGAAAAAGGCCCAGGGTAACACCGGAAGTGGGCTTAGTCTTGATTCGCTTGACGCTGCTG (double strand) [seq04_wt0] — lower, 12 log signal
- CGGAAGTGTCGTAAACGTCGGATATCTGGTTCTTCTGTCTTGATTCGCTTGACGCTGCTG (double strand) [seq01_p27 C>T] — lower, 8.37 log signal
- GCTGCTGCGGTGCATACCCCACCGGATGTGACCCCGGTCTTGATTCGCTTGACGCTGCTG (double strand) [seq02_wt0] — lower, 10.2 log signal
- CGGAAGTGTCGTAAACGTCGGATATCGGGTTCTTCTGTCTTGATTCGCTTGACGCTGCTG (double strand) [seq01_p27 C>G] — lower, 8.65 log signal
- CGGAAGTGTCGTAAACGTCGGTTATCCGGTTCTTCTGTCTTGATTCGCTTGACGCTGCTG (double strand) [seq01_p22 A>T] — lower, 9.21 log signal
- CGGAAGTGTCGTAAACGTCGGATATCCGGATCTTCTGTCTTGATTCGCTTGACGCTGCTG (double strand) [seq01_p30 T>A] — lower, 9.94 log signal
- CGGAAGTGTCGTAAACGTCGGATATACGGTTCTTCTGTCTTGATTCGCTTGACGCTGCTG (double strand) [seq01_p26 C>A] — lower, 9.21 log signal
- CGGAAGTGTCGTAAACGTCGGATCTCCGGTTCTTCTGTCTTGATTCGCTTGACGCTGCTG (double strand) [seq01_p24 A>C] — lower, 8.47 log signal
- CGGAAGTGTCGTAAACGTCGGATATCCGGTTCTTCTGTCTTGATTCGCTTGACGCTGCTG (double strand) [seq01_wt0] — lower, 11.9 log signal
- CGGAAGTGTCGTAAACGTCGGAGATCCGGTTCTTCTGTCTTGATTCGCTTGACGCTGCTG (double strand) [seq01_p23 T>G] — lower, 8.83 log signal
- CGGAAGTGTCGTAAACGTCGGATATCCAGTTCTTCTGTCTTGATTCGCTTGACGCTGCTG (double strand) [seq01_p28 G>A] — lower, 8.64 log signal
- CGGAAGTGTCGTAAACGTCGGATATTCGGTTCTTCTGTCTTGATTCGCTTGACGCTGCTG (double strand) [seq01_p26 C>T] — lower, 8.55 log signal
- CGGAAGTGTCGTAAACGTCGGATATCCGGGTCTTCTGTCTTGATTCGCTTGACGCTGCTG (double strand) [seq01_p30 T>G] — lower, 10.2 log signal
- CGGAAGTGTCGTAAACGTCGGACATCCGGTTCTTCTGTCTTGATTCGCTTGACGCTGCTG (double strand) [seq01_p23 T>C] — higher, 12.6 log signal
- CGGAAGTGTCGTAAACGTCGGATATGCGGTTCTTCTGTCTTGATTCGCTTGACGCTGCTG (double strand) [seq01_p26 C>G] — lower, 8.38 log signal
- CGGAAGTGTCGTAAACGTCGGATACCCGGTTCTTCTGTCTTGATTCGCTTGACGCTGCTG (double strand) [seq01_p25 T>C] — lower, 8.31 log signal
- CGGAAGTGTCGTAAACGTCGGATAGCCGGTTCTTCTGTCTTGATTCGCTTGACGCTGCTG (double strand) [seq01_p25 T>G] — lower, 8.18 log signal
- CGGAAGTGTCGTAAACGTCGGATATCCGTTTCTTCTGTCTTGATTCGCTTGACGCTGCTG (double strand) [seq01_p29 G>T] — lower, 9.45 log signal
- CGGAAGTGTCGTAAACGTCGGATATCAGGTTCTTCTGTCTTGATTCGCTTGACGCTGCTG (double strand) [seq01_p27 C>A] — lower, 8.51 log signal
- CGGAAGTGTCGTAAACGTCGGATGTCCGGTTCTTCTGTCTTGATTCGCTTGACGCTGCTG (double strand) [seq01_p24 A>G] — lower, 9.65 log signal
- CGGAAGTGTCGTAAACGTCGGCTATCCGGTTCTTCTGTCTTGATTCGCTTGACGCTGCTG (double strand) [seq01_p22 A>C] — lower, 8.79 log signal
- CGGAAGTGTCGTAAACGTCGGGTATCCGGTTCTTCTGTCTTGATTCGCTTGACGCTGCTG (double strand) [seq01_p22 A>G] — lower, 10.5 log signal
- CGGAAGTGTCGTAAACGTCGGATATCCGCTTCTTCTGTCTTGATTCGCTTGACGCTGCTG (double strand) [seq01_p29 G>C] — lower, 10.1 log signal
- CGGAAGTGTCGTAAACGTCGGATATCCGGCTCTTCTGTCTTGATTCGCTTGACGCTGCTG (double strand) [seq01_p30 T>C] — lower, 10.7 log signal
